The target of data set [1] is ISG20 WT (UniProt Q96AZ6 1-181). Description: EMSA; 10 mM Mn2+; ISG20 50-1600 nM, RNA 10 nM; fitted curve, no Kd printed in the material; ISG20 EMSA: 50 mM Tris-HCl pH 7.4, 150 mM NaCl, 5 mM b-mercaptoethanol, 10 mM MnCl2, 0.1 ug/ul BSA, 5% glycerol, 30 C 30 min; PABP1 EMSA: 25 mM Tris-HCl pH 7.4, 5 mM MgCl2, 100 mM NaCl, 2.5 mM DTT, 0.2 ug/ul BSA, 10% glycerol, 37 C 15 min. The settings on record: protein: recombinant; tags: N-terminal 6xHis; label: 5' 32P; hairpin.

Data set [2] concerns the target PABP1 (poly(A)-binding protein 1) (UniProt P11940 1-636). Nature of the data set: EMSA; 5 mM Mg2+; PABP1 50-500 nM, RNA 10 nM; ISG20 EMSA: 50 mM Tris-HCl pH 7.4, 150 mM NaCl, 5 mM b-mercaptoethanol, 10 mM MnCl2, 0.1 ug/ul BSA, 5% glycerol, 30 C 30 min; PABP1 EMSA: 25 mM Tris-HCl pH 7.4, 5 mM MgCl2, 100 mM NaCl, 2.5 mM DTT, 0.2 ug/ul BSA, 10% glycerol, 37 C 15 min. The settings on record: protein: recombinant; tags: His; label: 5' 32P; single strand. (In EMSA bound probe runs differently from free probe, usually more slowly.)

PABP1 (poly(A)-binding protein 1), sequence (P11940 whole entry): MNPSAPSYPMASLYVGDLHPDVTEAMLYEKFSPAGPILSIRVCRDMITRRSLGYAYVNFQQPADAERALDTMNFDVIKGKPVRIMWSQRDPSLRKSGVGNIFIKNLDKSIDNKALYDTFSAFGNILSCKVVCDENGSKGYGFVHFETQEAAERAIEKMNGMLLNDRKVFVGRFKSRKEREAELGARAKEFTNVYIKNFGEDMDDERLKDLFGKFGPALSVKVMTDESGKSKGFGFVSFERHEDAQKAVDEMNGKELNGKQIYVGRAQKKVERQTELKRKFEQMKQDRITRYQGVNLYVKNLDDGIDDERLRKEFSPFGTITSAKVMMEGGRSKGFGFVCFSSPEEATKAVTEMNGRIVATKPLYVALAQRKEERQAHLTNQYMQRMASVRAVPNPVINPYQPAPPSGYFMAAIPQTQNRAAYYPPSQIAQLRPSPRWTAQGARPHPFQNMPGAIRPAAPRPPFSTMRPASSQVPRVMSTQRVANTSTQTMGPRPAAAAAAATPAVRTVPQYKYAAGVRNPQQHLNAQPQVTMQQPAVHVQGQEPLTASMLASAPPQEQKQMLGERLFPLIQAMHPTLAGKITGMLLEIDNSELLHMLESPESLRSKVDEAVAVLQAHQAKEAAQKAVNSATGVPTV
ISG20 WT, sequence (Q96AZ6 whole entry): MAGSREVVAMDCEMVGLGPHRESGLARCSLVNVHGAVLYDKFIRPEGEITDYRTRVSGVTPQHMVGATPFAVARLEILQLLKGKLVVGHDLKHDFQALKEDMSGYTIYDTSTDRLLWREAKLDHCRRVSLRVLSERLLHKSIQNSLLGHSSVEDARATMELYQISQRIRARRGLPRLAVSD

In the case of GGGGCCAGAUCUGAGCCUGGGAGCUCUCUGGCCC (structured_RNA) [TAR-9SL], the binding result in data set [1] is “binds”.
As for ACACACACACACACACACACAAAAAAAAAAAAAAAAAAAA (ssRNA) [(AC)10A20, poly(A)-containing linear RNA], the binding result in data set [2] is given as “binds”.

The values above are taken from publication PMC10902665, “Stable structures or PABP1 loading protects cellular and viral RNAs against ISG20-mediated decay”.
